Drawing on US20230136331A1 (ILDONG PHARMACEUTICAL, published 2023), this text covers Kd for 1 molecule.

The assay concerns the target T1, human TIGIT (human, UniProt Q495A1 22-141).
T1 construct: also called hTIGIT
T1 sequence (looked up): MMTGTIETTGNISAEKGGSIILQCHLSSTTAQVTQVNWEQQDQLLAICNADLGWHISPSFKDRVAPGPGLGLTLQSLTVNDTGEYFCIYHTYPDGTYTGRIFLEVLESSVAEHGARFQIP
The assay is described as follows: SPR, captured by anti-human Fc, hTIGIT analyte. An excerpt:
The sensorgrams for reference channel Fc1 and buffer channel were subtracted from the test sensorgrams.
(In general: In SPR one partner is held on a chip, and binding of the other changes the refractive index at the surface.)

A word on the Kd: it is a measure of binding affinity in units of concentration.

B1: Tiragolumab (antibody, human IgG1, kappa, V domains shown)
VH: EVQLQQSGPGLVKPSQTLSLTCAISGDSVSSNSAAWNWIRQSPSRGLEWLGKTYYRFKWYSDYAVSVKGRITINPDTSKNQFSLQLNSVTPEDTAVFYCTRESTTYDLLAGPFDYWGQGTLVTVSS
VL: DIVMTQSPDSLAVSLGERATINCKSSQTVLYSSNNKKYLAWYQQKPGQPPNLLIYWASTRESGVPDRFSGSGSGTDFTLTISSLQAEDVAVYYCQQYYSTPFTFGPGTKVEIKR
notes: also called anti-TIGIT antibody; control antibody
B1 yielded a Kd of 0.0595 nM.
